Data on 18 molecules can be found in patent US20250304658A1 (ICAHN SCHOOL OF MEDICINE AT MOUNT SINAI, published 2025).

Numbering of substitutions follows the chain as printed. Values joined by “and” are separate entries in the source; they are usually repeats but may differ in a detail not shown here. Equal entries are not always repeated. Where only a bound is given, the exact number is not on record here.

T1: BK virus VP1 protein, genotype I (BK virus, UniProt P03088 1-362)
T1 sequence: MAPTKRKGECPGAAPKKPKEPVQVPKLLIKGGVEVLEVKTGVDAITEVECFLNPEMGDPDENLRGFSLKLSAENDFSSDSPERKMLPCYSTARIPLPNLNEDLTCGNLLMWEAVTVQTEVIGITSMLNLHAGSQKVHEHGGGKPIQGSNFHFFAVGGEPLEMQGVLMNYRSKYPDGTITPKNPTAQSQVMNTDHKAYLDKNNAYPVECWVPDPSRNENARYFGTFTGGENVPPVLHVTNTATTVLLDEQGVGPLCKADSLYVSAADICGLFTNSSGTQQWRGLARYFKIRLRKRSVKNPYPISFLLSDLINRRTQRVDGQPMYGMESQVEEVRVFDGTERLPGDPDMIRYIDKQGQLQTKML

B1: 4E6 (antibody, V domains shown)
VH: EVQLVESGGDLVQPGRSLRLSCAASGFTFDDYAMHWVRQGPGKGLEWVSGISWSGVTMGYADSVKGRFTISRDNAKNSLYLRMNSLRADDTAFYYCARGDGTNAFDIWGHGTMVTVSS
VL: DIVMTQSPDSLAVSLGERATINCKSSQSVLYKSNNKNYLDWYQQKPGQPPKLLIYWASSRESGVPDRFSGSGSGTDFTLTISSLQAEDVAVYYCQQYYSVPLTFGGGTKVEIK
B2: 7E5 (antibody, V domains shown)
VH: EVQLLESGGGLIQPGGSLRLSCAASGFTFSGFAMSWVRQAPGKGLEWVSGISGSGDITYYGDSVKGRFTISRDNSKSTLYLQMNSLRDADTAVYYCGKDPYNWNHGVYGMDVWGQGTTVTVSS
VL: DIQMTQSPSSLSASVGDRVTITCRASQSISTYLNWYQQKPGKAPKFLIYGASSLQSGVPSRFSGSGSGTDFSLTISSLHPGDFATYYCQQSYNIPLTFGGGTKVEIK
B3: 6H12 (antibody, V domains shown)
VH: EVQLVESGGGLVQPGGSLRLSCAASGFTFSSYEMNWVRQAPGKGLEWVSYISSGGSSIKYADSVRGRFAFSRDNAENSVHLQMNSLRAEDTAVYYCARVGGSYYYSYAMDVWGQGTAVTVSS
VL: DIQLTQSPSFLSASVGDRVTITCWASQDISSYLAWYQQKPGKAPKLLIYAASTLQSGVPSRFTGSGSGTEFTLTISSLQPEDFATYYCQQPHNSPFSFGPGTKVDVK
B4: 11D12 (antibody, V domains shown)
VH: B3 VH with A69T, H80F, A88G
VL: B3 VL with T63S, H92N, S94Y
B5: 14F5 (antibody, V domains shown)
VH: EVQLLESGGGLVQPGGSLRLSCAVSGFTFSSFAMSWVRQAPGKGLEWVSGISASGGTTNYADSVKGRFTISRDNSKNTLYLQMSSLRAEDTAEYYCAKDRFLEWVEGFDPWGQGILVTVSP
VL: DIQMTQSPSSLSASVGDRVTITCRASQSIGRFLIWYQQKPGKAPKLLLYATSSLQSGVPARFTGSGSGTDFTLTIGSLQPEDFATYYCQQSYITPLTFGGGTKVEIK
B6: 9G9 (antibody, V domains shown)
VH: EVQLLESGGGLVQPGGSLRLSCAASGFTFHNYAMSWVRQAPGKGLEWVSGISGSGGTAYYADSVKGRFTISRDNSKNTLYLQMNSLRADDTALYYCAKDRFLEWVEGFDSWGQGTLVTVSS
VL: B5 VL with R31S, L48I, T51A, A60S, T63S, T74I, G76S, I93N
B7: 15C10 (antibody, V domains shown)
VH: B5 VH with V24A
VL: B5 VL
B8: 7A4 (antibody, V domains shown)
VH: QVQLVESGGDLVKPGGSLRLSCVASGFTFSDYYMNWIRLPPGKGLEWISYIDSSAGAIYYADSVKGRFTVSRDDAKNSLFLHMNSLRADDTAVYYCVRERRDGHKIFDYWGPGTLVTVSS
VL: DIVMTQSPDSLAVSLGERATINCKSSQNILYSSNNKNYLAWYQQKAGQPPKLLIFWSSIRESGVPDRFSGSGSGTDFTLTISSLQAEDVAVYYCQQYYSSPYNFGRGTTLEIK
B9: 4F7 (antibody, V domains shown)
VH: B8 VH with S85N, V97A, Y109C
VL: B8 VL with I59T
B10: 1H10 (antibody, V domains shown)
VH: B8 VH with Q3H, L39M, S85N, V97A, Y109C
VL: B8 VL with I59T
B11: 8A11 (antibody, V domains shown)
VH: B8 VH with I58T, D89E, V97A, D102S, Y109C
VL: B8 VL with I59T
B12: 9B4 (antibody, V domains shown)
VH: B8 VH with V97A, D102E, Y109F
VL: B8 VL with V13L, W41C, I59T
B13: 8D10 (antibody, V domains shown)
VH: B8 VH with Q3H, L79M, V97A
VL: B8 VL with I59T
B14: 2F7 (antibody, V domains shown)
VH: B8 VH with D10G, K43R, E46Q, F80Y, H82Q, V97A, Y109W, P112Q
VL: B8 VL with S32T, A40G, F55Y, I59T, E61N, Q95H, N103T, R106Q, T109N
B15: 5A8 (antibody, V domains shown)
VH: B8 VH with K43R, N77K, H82Y, V97A
VL: B8 VL with I59T, Q95H
B16: 1E2 (antibody, V domains shown)
VH: B8 VH with I48V, K65R, V97A, Y109C
VL: B8 VL with I59T, S82N
B17: 7H8 (antibody, V domains shown)
VH: EVQLLESGGGLVQPGGSLRLSCAASGFAFHTYDMTWVRQAPGKGLEWVSGVVGSGINTYYADSVKGRFTISRDNSKSTLYLQMNSLRAEDTAVYYCAKDSSSWFSLHYWGQGTLVTVSS
VL: DIQMTQSPSTLSASVGDRVTITCRASQSISNWLAWYQQKPGKAPKLLIYKASSLESGVPSRFSGSGSGTDFTLTISSLQPDDFASYYCQQYRSYAYTFGQGTKLEIT
B18: 2H1 (antibody, V domains shown)
VH: B8 VH with V97A, Y109C
VL: B8 VL with A46T, I59T

One test addresses T1, BK virus VP1 protein, genotype I. In words: cell-based or functional assay.
On to B1, for which the “EC50, pseudovirus neutralization” value was above 6670 pM.

In the case of B2, the “EC50, pseudovirus neutralization” value was determined as 24.9 pM.

The next test has as its target BK virus VP1 protein, genotype II (BK virus). Put plainly: cell-based or functional assay.
For the molecule B3, the “EC50, pseudovirus neutralization” value is 10.9 pM.

Take B4: the “EC50, pseudovirus neutralization” value stood at 9.5 pM.

As for B5, the “EC50, pseudovirus neutralization” value was determined as 13.1 pM.

Turning to B6, the “EC50, pseudovirus neutralization” value worked out at 3.2 pM.

As to B7, the “EC50, pseudovirus neutralization” value was 13.1 pM.

For B8, the “EC50, pseudovirus neutralization” value is 13.2 pM.

With B9, the “EC50, pseudovirus neutralization” value was found to be 31.9 pM.

B10: the “EC50, pseudovirus neutralization” value was determined as 2.8 pM.

Regarding B11, the “EC50, pseudovirus neutralization” value came out at 1.4 pM.

In the case of B12, the “EC50, pseudovirus neutralization” value worked out at 15.2 pM.

Consider B13, for which the “EC50, pseudovirus neutralization” value is 49.2 pM.

Regarding B14, the “EC50, pseudovirus neutralization” value worked out at 1.1 pM.

Regarding B15, the “EC50, pseudovirus neutralization” value is 0.9 pM.

For the molecule B16, the “EC50, pseudovirus neutralization” value was determined as 33.2 pM.

Consider B1, for which the “EC50, pseudovirus neutralization” value was determined as 2.1 pM.

As to B2, the “EC50, pseudovirus neutralization” value was determined as 1160 pM.

With B17, the “EC50, pseudovirus neutralization” value is 50 pM.

The next test deals with BK virus VP1 protein, genotype III (BK virus). Put plainly: cell-based or functional assay.
With B3, the “EC50, pseudovirus neutralization” value came to 127 pM.

Regarding B4, the “EC50, pseudovirus neutralization” value came out at 6380 pM.

In the case of B5, the “EC50, pseudovirus neutralization” value was determined as 21.5 pM.

B6: the “EC50, pseudovirus neutralization” value was determined as 1700 pM.

Consider B7, for which the “EC50, pseudovirus neutralization” value was 21.1 pM.

With B8, the “EC50, pseudovirus neutralization” value was determined as 8.1 pM.

On to B9, for which the “EC50, pseudovirus neutralization” value turned out to be 14.3 pM.

On to B10, for which the “EC50, pseudovirus neutralization” value is 39.7 pM.

Turning to B11, the “EC50, pseudovirus neutralization” value stood at 31.5 pM.

In the case of B12, the “EC50, pseudovirus neutralization” value was found to be 11.8 pM.

On to B13, for which the “EC50, pseudovirus neutralization” value stood at 29 pM.

For the molecule B14, the “EC50, pseudovirus neutralization” value was found to be 2.2 pM.

For B15, the “EC50, pseudovirus neutralization” value was found to be 3.9 pM.

For B16, the “EC50, pseudovirus neutralization” value is 8.1 pM.

In the case of B1, the “EC50, pseudovirus neutralization” value came to 29.6 pM.

Consider B2, for which the “EC50, pseudovirus neutralization” value is 415 pM.

As for B17, the “EC50, pseudovirus neutralization” value was 33.4 pM.

In a further test the target is BK virus VP1 protein, genotype IV (BK virus). Put plainly: cell-based or functional assay.
As for B3, the “EC50, pseudovirus neutralization” value came out at 2210 pM.

B4: the “EC50, pseudovirus neutralization” value was above 6670 pM.

For the molecule B5, the “EC50, pseudovirus neutralization” value is 67.1 pM.

For B6, the “EC50, pseudovirus neutralization” value is 110 pM.

For B7, the “EC50, pseudovirus neutralization” value is 42.3 pM.

As for B8, the “EC50, pseudovirus neutralization” value is 25.1 pM.

With B9, the “EC50, pseudovirus neutralization” value amounted to 41.6 pM.

In the case of B10, the “EC50, pseudovirus neutralization” value amounted to 107 pM.

As for B11, the “EC50, pseudovirus neutralization” value turned out to be 94.8 pM.

With B12, the “EC50, pseudovirus neutralization” value stood at 11.8 pM.

Consider B13, for which the “EC50, pseudovirus neutralization” value worked out at 89.4 pM.

For the molecule B14, the “EC50, pseudovirus neutralization” value came out at 72.4 pM.

On to B18, for which the “EC50, pseudovirus neutralization” value is 72.8 pM and 81.5 pM.

As for B15, the “EC50, pseudovirus neutralization” value was determined as 77.4 pM.

As to B16, the “EC50, pseudovirus neutralization” value came out at 143 pM.

On to B1, for which the “EC50, pseudovirus neutralization” value worked out at 19.7 pM.

Take B2: the “EC50, pseudovirus neutralization” value was determined as 133 pM.

Take B17: the “EC50, pseudovirus neutralization” value is 94.3 pM.

Another test concerns the target BK virus VP1 protein, genotype II (BK virus). In words: cell-based or functional assay. This is another data set of the same source.
For B3, the “EC50, pseudovirus neutralization (mAb mixed with irrelevant isotype matched mAb M2)” value stood at 2.4 pM.

In the case of B6, the “EC50, pseudovirus neutralization (mAb mixed with irrelevant isotype matched mAb M2)” value amounted to 2.3 pM.

B7: the “EC50, pseudovirus neutralization” value worked out at 0.58 pM.

The target in the next test is BK virus VP1 protein, genotype III (BK virus). In words: cell-based or functional assay. The source holds these as a separate data set.
Turning to B3, the “EC50, pseudovirus neutralization (mAb mixed with irrelevant isotype matched mAb M2)” value is 172 pM.

Regarding B6, the “EC50, pseudovirus neutralization (mAb mixed with irrelevant isotype matched mAb M2)” value worked out at 1290 pM.

B7: the “EC50, pseudovirus neutralization” value came to 1.86 pM.

The next test has as its target BK virus VP1 protein, genotype IV (BK virus). Put plainly: cell-based or functional assay. The source holds these as a separate data set.
For the molecule B3, the “EC50, pseudovirus neutralization (mAb mixed with irrelevant isotype matched mAb M2)” value worked out at 944 pM.

Take B6: the “EC50, pseudovirus neutralization (mAb mixed with irrelevant isotype matched mAb M2)” value is 196 pM.

As for B7, the “EC50, pseudovirus neutralization” value was 2.3 pM.
